± gives the standard deviation of the averaged measurements.
Assay: total protein half-life in vivo (active degradation + dilution); higher = more stable protein
[1] = E. coli NCM3722 delta-clpP delta-lon delta-hslV, growth: N-lim chemostat, doubling time 6 h
[2] = E. coli NCM3722 delta-clpP, growth: N-lim chemostat, doubling time 6 h
[3] = E. coli NCM3722 delta-hslV, growth: N-lim chemostat, doubling time 6 h
[4] = E. coli NCM3722 delta-lon, growth: N-lim chemostat, doubling time 6 h
[5] = E. coli NCM3722 delta-smpB, growth: N-lim chemostat, doubling time 6 h
[6] = wild type E. coli NCM3722, growth: C-lim chemostat, doubling time 3 h
[7] = wild type E. coli NCM3722, growth: C-lim chemostat, doubling time 6 h
[8] = wild type E. coli NCM3722, growth: C-lim chemostat, doubling time 12 h
[9] = wild type E. coli NCM3722, growth: N-lim chemostat, doubling time 6 h
[10] = wild type E. coli NCM3722, growth: N-lim chemostat, doubling time 12 h
[11] = wild type E. coli NCM3722, growth: P-lim chemostat, doubling time 6 h
[12] = wild type E. coli NCM3722, growth: P-lim chemostat, doubling time 12 h

In the case of “MKKIAIVGAGPTGIYTLFSLLQQQTPLSISIFEQADEAGVGMPYSDEENSKMMLANIASIEIPPIYCTYLEWLQKQEDSHLQRYGVKKETLHDRQFLPRILLGEYFRDQFLRLVDQARQQKFAVAVYESCQVTDLQITNAGVMLATNQDLPSETFDLAVIATGHVWPDEEEATRTYFPSPWSGLMEAKVDACNVGIMGTSLSGLDAAMAVAIQHGSFIEDDKQHVVFHRDNASEKLNITLLSRTGILPEADFYCPIPYEPLHIVTDQALNAEIQKGEEGLLDRVFRLIVEEIKFADPDWSQRIALESLNVDSFAQAWFAERKQRDPFDWAEKNLQEVERNKREKHTVPWRYVILRLHEAVQEIVPHLNEHDHKRFSKGLARVFIDNYAAIPSESIRRLLALREAGIIHILALGEDYKMEINESRTVLKTEDNSYSFDVFIDARGQRPLKVKDIPFPGLREQLQKTGDEIPDVGEDYTLQQPEDIRGRVAFGALPWLMHDQPFVQGLTACAEIGEAMARAVVKPASRARRRLSFD”, the “total protein half-life in vivo” value [1] is reported as 4.97 ± 0.15 h, the “total protein half-life in vivo” value [2] is reported as 4.38 ± 0.22 h and the “total protein half-life in vivo” value [3] is reported as 4.07 ± 0.29 h. For the same sequence, the “total protein half-life in vivo” value [4] was 4.14 ± 0.29 h, the “total protein half-life in vivo” value [5] was 3.75 ± 0.084 h and the “total protein half-life in vivo” value [6] was 3.05 ± 0.16 h. For the same sequence, the “total protein half-life in vivo” value [7] was 5.2 ± 0.33 h, the “total protein half-life in vivo” value [8] was 8.04 ± 1.7 h and the “total protein half-life in vivo” value [9] was 3.89 ± 0.12 h. The “total protein half-life in vivo” value [10] was 6.3 ± 0.43 h, the “total protein half-life in vivo” value [11] was 5.59 ± 0.087 h and the “total protein half-life in vivo” value [12] was 9.95 ± 0.48 h.
With “MSIRFARKADCAAIAEIYNHAVLYTAAIWNDQTVDADNRIAWFEARTLAGYPVLVSEENGVVTGYASFGDWRSFDGFRHTVEHSVYVHPDHQGKGLGRKLLSRLIDEARDCGKHVMVAGIESQNQASLHLHQSLGFVVTAQMPQVGTKFGRWLDLTFMQLQLDERTEPDAIG” the “total protein half-life in vivo” value [1] was 5.23 ± 0.39 h, the “total protein half-life in vivo” value [2] was 4.6 ± 0.25 h and the “total protein half-life in vivo” value [3] was 4.9 ± 0.08 h. The “total protein half-life in vivo” value [4] was 5.17 ± 0.18 h, the “total protein half-life in vivo” value [5] was 4.66 ± 0.33 h and the “total protein half-life in vivo” value [6] was 2.77 ± 0.072 h. The “total protein half-life in vivo” value [7] was 5.77 ± 0.34 h, the “total protein half-life in vivo” value [8] was 10.14 ± 0.042 h and the “total protein half-life in vivo” value [9] was 4.93 ± 0.44 h. The “total protein half-life in vivo” value [10] was 9.49 h, the “total protein half-life in vivo” value [11] was 5.912 ± 0.025 h and the “total protein half-life in vivo” value [12] was 12 ± 0.29 h.
In the case of “MDLNTLISQYGYAALVIGSLAEGETVTLLGGVAAHQGLLKFPLVVLSVALGGMIGDQVLYLCGRRFGGKLLRRFSKHQDKIERAQKLIQRHPYLFVIGTRFMYGFRVIGPTLIGASQLPPKIFLPLNILGAFAWALIFTTIGYAGGQVIAPWLHNLDQHLKHWVWLILVVVLVVGVRWWLKRRGKKKPDHQA”, the “total protein half-life in vivo” value [1] is reported as 6.78 h, the “total protein half-life in vivo” value [7] is reported as 5.72 h and the “total protein half-life in vivo” value [10] is reported as 10.9 h. For the same sequence, the “total protein half-life in vivo” value [11] was 6.18 h and the “total protein half-life in vivo” value [12] was 13.6 h.
For “MIPVERRQIILEMVAEKGIVSIAELTDRMNVSHMTIRRDLQKLEQQGAVVLVSGGVQSPGRVAHEPSHQVKTALAMTQKAAIGKLAASLVQPGSCIYLDAGTTTLAIAQHLIHMESLTVVTNDFVIADYLLDNSNCTIIHTGGAVCRENRSCVGEAAATMLRSLMIDQAFISASSWSVRGISTPAEDKVTVKRAIASASRQRVLVCDATKYGQVATWLALPLSEFDQIITDDGLPESASRALVKQDLSLLVAKNE”, the “total protein half-life in vivo” value [1] was 5.5397 ± 0.0019 h, the “total protein half-life in vivo” value [2] was 4.93 ± 0.35 h and the “total protein half-life in vivo” value [3] was 4.72 ± 0.089 h. The “total protein half-life in vivo” value [5] was 4.76 ± 0.23 h, the “total protein half-life in vivo” value [6] was 2.62 ± 0.12 h and the “total protein half-life in vivo” value [7] was 5.33 ± 0.07 h. The “total protein half-life in vivo” value [8] was 8.85 ± 0.59 h, the “total protein half-life in vivo” value [9] was 4.82 ± 0.13 h and the “total protein half-life in vivo” value [10] was 8.78 ± 0.59 h. The “total protein half-life in vivo” value [11] was 4.69 ± 0.52 h and the “total protein half-life in vivo” value [12] was 9.046 ± 0.035 h.
In the case of “MSKIKGNVKWFNESKGFGFITPEDGSKDVFVHFSAIQTNGFKTLAEGQRVEFEITNGAKGPSAANVIAL [P0A972]”, the “total protein half-life in vivo” value [1] is reported as 3.54 ± 0.22 h, the “total protein half-life in vivo” value [2] is reported as 2.27 ± 0.041 h and the “total protein half-life in vivo” value [3] is reported as 1.7 ± 0.036 h. The “total protein half-life in vivo” value [4] was 3.44 ± 0.12 h, the “total protein half-life in vivo” value [5] was 1.96 ± 0.28 h and the “total protein half-life in vivo” value [6] was 2.156 ± 0.014 h. For the same sequence, the “total protein half-life in vivo” value [7] was 2.37 ± 0.17 h, the “total protein half-life in vivo” value [8] was 2.62 ± 0.54 h and the “total protein half-life in vivo” value [9] was 1.8 ± 0.15 h. For the same sequence, the “total protein half-life in vivo” value [10] was 2.23 ± 0.19 h, the “total protein half-life in vivo” value [11] was 1.945 ± 0.018 h and the “total protein half-life in vivo” value [12] was 3.16 ± 0.3 h.
For “MAEFETTFADLGLKAPILEALNDLGYEKPSPIQAECIPHLLNGRDVLGMAQTGSGKTAAFSLPLLQNLDPELKAPQILVLAPTRELAVQVAEAMTDFSKHMRGVNVVALYGGQRYDVQLRALRQGPQIVVGTPGRLLDHLKRGTLDLSKLSGLVLDEADEMLRMGFIEDVETIMAQIPEGHQTALFSATMPEAIRRITRRFMKEPQEVRIQSSVTTRPDISQSYWTVWGMRKNEALVRFLEAEDFDAAIIFVRTKNATLEVAEALERNGYNSAALNGDMNQALREQTLERLKDGRLDILIATDVAARGLDVERISLVVNYDIPMDSESYVHRIGRTGRAGRAGRALLFVENRERRLLRNIERTMKLTIPEVELPNAELLGKRRLEKFAAKVQQQLESSDLDQYRALLSKIQPTAEGEELDLETLAAALLKMAQGERTLIVPPDAPMRPKREFRDRDDRGPRDRNDRGPRGDREDRPRRERRDVGDMQLYRIEVGRDDGVEVRHIVGAIANEGDISSRYIGNIKLFASHSTIELPKGMPGEVLQHFTRTRILNKPMNMQLLGDAQPHTGGERRGGGRGFGGERREGGRNFSGERREGGRGDGRRFSGERREGRAPRRDDSTGRRRFGGDA [P0A9P6]”, the “total protein half-life in vivo” value [1] was 5.66 ± 0.077 h, the “total protein half-life in vivo” value [2] was 0.972 ± 0.029 h and the “total protein half-life in vivo” value [3] was 0.567 ± 0.1 h. For the same sequence, the “total protein half-life in vivo” value [4] was 4.78 ± 0.32 h, the “total protein half-life in vivo” value [5] was 0.849 ± 0.089 h and the “total protein half-life in vivo” value [6] was 1.4 ± 0.34 h. The “total protein half-life in vivo” value [7] was 1.34 ± 0.29 h, the “total protein half-life in vivo” value [8] was 1.19 ± 0.17 h and the “total protein half-life in vivo” value [9] was 2.26 ± 2 h. The “total protein half-life in vivo” value [10] was 0.902 ± 0.095 h, the “total protein half-life in vivo” value [11] was 0.635 ± 0.37 h and the “total protein half-life in vivo” value [12] was 0.864 ± 0.3 h.
